Biological target: T1, GST-[change] (aa 1–320) (S. cerevisiae, UniProt P33332 1-320)
T1 sequence: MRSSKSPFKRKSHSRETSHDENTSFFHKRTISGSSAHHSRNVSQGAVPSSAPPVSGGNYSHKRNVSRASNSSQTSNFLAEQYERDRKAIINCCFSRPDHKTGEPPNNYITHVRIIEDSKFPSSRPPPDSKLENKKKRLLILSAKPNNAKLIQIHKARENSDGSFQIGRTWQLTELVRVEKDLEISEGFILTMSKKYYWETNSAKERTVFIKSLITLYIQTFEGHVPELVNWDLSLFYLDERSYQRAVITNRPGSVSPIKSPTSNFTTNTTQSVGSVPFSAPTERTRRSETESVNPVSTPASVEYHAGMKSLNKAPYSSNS
Assay: pull-down

B1: Hisx6-Cdc42 (natural protein)
chain: not shown
B1: binds.

Source: article PMC2213614 (The Journal of Cell Biology, 2008)
